# Laboratory results as given in patent US20210032315A1 (VIVORYON THERAPEUTICS N V, published 2021).
# Numbering of substitutions follows the chain as printed. In names and notes the source's numbering stands. Like-named read-outs stand apart in the source and are kept apart here.
# T1: Aβ (1-18) (human)
# T1 peptide: DAEFRHDSGYEVHHQKLV
# T2: Aβ (4-18) (human)
# T2 peptide: FRHDSGYEVHHQKLV
# T3: full length human CD32A (human, UniProt P12318 34-317)
# T3 construct: whole, on cells; also called Fc gamma receptor
# T3 sequence (looked up): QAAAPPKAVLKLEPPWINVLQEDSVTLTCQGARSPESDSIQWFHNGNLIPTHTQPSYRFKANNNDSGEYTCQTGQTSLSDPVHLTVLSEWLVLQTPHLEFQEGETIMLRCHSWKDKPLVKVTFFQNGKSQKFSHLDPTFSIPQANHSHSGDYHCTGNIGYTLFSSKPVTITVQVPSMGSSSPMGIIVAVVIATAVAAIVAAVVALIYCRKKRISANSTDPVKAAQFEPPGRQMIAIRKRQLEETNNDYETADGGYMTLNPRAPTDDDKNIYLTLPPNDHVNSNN
# T4: full length human CD32B (human, UniProt P31994 43-310)
# T4 construct: whole, on cells; also called Fc gamma receptor
# T4 sequence (looked up): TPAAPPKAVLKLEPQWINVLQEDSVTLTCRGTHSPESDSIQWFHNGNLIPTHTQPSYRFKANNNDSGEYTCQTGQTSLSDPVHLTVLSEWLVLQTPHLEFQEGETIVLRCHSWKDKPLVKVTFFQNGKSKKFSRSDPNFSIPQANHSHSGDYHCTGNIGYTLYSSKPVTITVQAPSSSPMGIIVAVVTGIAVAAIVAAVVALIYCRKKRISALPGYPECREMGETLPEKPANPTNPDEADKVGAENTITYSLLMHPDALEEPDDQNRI
# B1: parental antibody clone #6 disclosed in WO 2017/009459 (antibody, V domains shown)
# VH: QVQLVQSGAEVKKSGASVKVSCKASGYSFTGHTMNWVRQAPGQGLEWMGLINPSNGVTRYNQKFQGRVTITRDTSTTTVHMELTSLTSEDTATYYCTREAKREWDETYWGQGTLVTVSS
# VL: DVVMTQSPLSLPVTLGQPASISCKSSQSLLYSDGKTYLNWFQQRPGQSPRRLTYLVSKLDSGVPDRFSGSGSGTDFTLKISRVEAEDVGVYYCVQGTHFPFTFGGGTKVEIK
# notes: also called parental clone #6 variant
# B2: humanized and de-immunized antibody clone #6 of the present invention (antibody, V domains shown)
# VH: B1 VH with K12V, S14P, N55D
# VL: B1 VL
# notes: It was captured by a polyclonal anti-human antibody, so it has human constant regions
# B3: antibody comprising the wild-type heavy chain of SEQ ID NO: 19 (antibody, human IgG1, kappa)
# heavy: not shown
# light: DVVMTQSPLSLPVTLGQPASISCKSSQSLLYSDGKTYLNWFQQRPGQSPRRLTYLVSKLDSGVPDRFSGSGSGTDFTLKISRVEAEDVGVYYCVQGTHFPFTFGGGTKVEIKRTVAAPSVFIFPPSDEQLKSGTASVVCLLNNFYPREAKVQWKVDNALQSGNSQESVTEQDSKDSTYSLSSTLTLSKADYEKHKVYACEVTHQGLSSPVTKSFNRGEC
# notes: also called antibody according to A)
# B4: K324A mutant variant (comprising the heavy chain of SEQ ID NO: 18) (antibody, human IgG1, kappa)
# heavy: not shown
# light: B3 light
# notes: also called antibody according to B)
# Key:
# [1] = target: T5, Fibrils of Aβ (1-42) peptides (human); experiment: SPR, fibrils captured on the chip, antibody as analyte, single cycle kinetics
# T5 construct: Fibrillar aggregate of Aβ 1-42, made at pH 8.7 and 37 °C and captured on the sensor chip (about 100 RU); also called Aβ (1-42) fibrils
# Experimental: (§1) The obtained sensorgrams were evaluated using five consecutive concentrations (starting with the first injection showing binding) and the Single Cycle Kinetics model with a global fit of Rmax and baseline drift and local fits of the bulk effect of every injection.
# [2] = target: T6, Oligomers of Aβ (1-42) peptides (human); experiment: SPR, oligomers captured on the chip, antibody as analyte, single cycle kinetics
# T6 construct: Oligomeric Aβ 1-42, made by the ACUMEN protocol in Ham's F12 at 4 °C and captured on the sensor chip (about 300 RU); also called Aβ (1-42) oligomers
# Experimental: Oligomers of Aβ (1-42) peptides were generated according to the ACUMEN protocol in Ham's F12 medium overnight at 4° C. and separated from aggregated Aβ by centrifugation. Afterwards the oligomers were aspirated in 20 μl, diluted in 60 μl running buffer and loaded onto a sensor chip by use of capture antibodies with a flow rate of 1 μl/min. Then, the system was washed overnight with 100 μl/min getting a stable baseline.
# as §1
# Aβ (1-18) = target: T1, Aβ (1-18); experiment: SPR, antibody captured by anti-human antibody, peptide as analyte
# Aβ (4-18) [3] = target: T2, Aβ (4-18); experiment: SPR, antibody captured by anti-human antibody, peptide as analyte, steady-state model
# Aβ (4-18) [4] = target: T2, Aβ (4-18); experiment: as above
# full length human CD16A = target: T7, full length human CD16A (human, UniProt P08637 17-254); experiment: FACS on CHO cells stably expressing the receptor, 7 concentrations
# T7 construct: whole, on cells; also called Fc gamma receptor
# Experimental: (§2) The binding was measured in a FACS based bioassay to Chinese Hamster Ovary (CHO) cells stably expressing full length human CD16A, CD32A, CD32B, or CD64. Both antibodies were incubated with each cell line at 7 different concentrations for one hour followed by washing. Receptor-bound H6 or H67 was detected with fluorochrome conjugated-anti-Fab′. Binding capacity was measured by FACS and the Kd and Bmax were calculated by non-linear regression.
# full length human CD64 = target: T8, full length human CD64 (human, UniProt P12314 16-374); experiment: as above
# T8 construct: whole, on cells; also called Fc gamma receptor
# Experimental: as §2
# full length human CD32A = target: T3, full length human CD32A; experiment: as above
# Experimental: as §2
# full length human CD32B = target: T4, full length human CD32B; experiment: as above
# Experimental: as §2
# T5 sequence (peptide, as listed by the source): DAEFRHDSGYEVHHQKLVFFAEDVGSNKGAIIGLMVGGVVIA
# T6 sequence (peptide, as listed by the source): as above
# T8 sequence (P12314 16-374): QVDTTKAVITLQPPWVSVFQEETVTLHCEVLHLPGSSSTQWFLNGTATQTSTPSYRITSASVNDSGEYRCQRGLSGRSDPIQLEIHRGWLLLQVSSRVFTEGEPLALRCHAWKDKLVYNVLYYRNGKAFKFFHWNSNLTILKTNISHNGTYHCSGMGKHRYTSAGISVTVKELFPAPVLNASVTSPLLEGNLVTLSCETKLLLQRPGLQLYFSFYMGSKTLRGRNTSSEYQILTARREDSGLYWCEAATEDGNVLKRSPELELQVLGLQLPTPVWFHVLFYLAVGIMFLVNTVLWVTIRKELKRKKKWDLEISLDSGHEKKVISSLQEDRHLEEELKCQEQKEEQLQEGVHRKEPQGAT
# T7 sequence (P08637 17-254): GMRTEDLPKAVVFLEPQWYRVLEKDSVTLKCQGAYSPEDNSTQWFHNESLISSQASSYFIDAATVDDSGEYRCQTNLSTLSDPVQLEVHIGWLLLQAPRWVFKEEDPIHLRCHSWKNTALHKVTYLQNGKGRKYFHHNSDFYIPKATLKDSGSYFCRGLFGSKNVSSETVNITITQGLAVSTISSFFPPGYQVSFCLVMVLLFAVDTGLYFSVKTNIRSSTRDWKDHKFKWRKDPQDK
Binder,Kd [1] [nM],koff [1] [s⁻¹],kon [1] [M⁻¹ s⁻¹],Kd [2] [nM],koff [2] [s⁻¹],kon [2] [M⁻¹ s⁻¹],Kd (Aβ (1-18)) [µM],Kd (Aβ (4-18) [3]) [µM],Kd (Aβ (4-18) [4]) [µM],binding result (full length human CD16A),binding result (full length human CD64),binding result (full length human CD32A),binding result (full length human CD32B)
B1,0.0659,6.53e-05,990000,7.61,0.000142,18600,,,,,,,
B2,1.67,,,269,,,> 10,28.3,> 10,,,,
B3,,,,,,,,,,binds,binds,binds,binds
B4,,,,,,,,,,binds,binds,binds,binds
